According to article PMC13157019 (eBioMedicine, 2026):

What was measured:
Assay in all cases: SPR
[1] = molecular target: T1, rabbit Langerin ectodomain (recombinant) (rabbit)
T1 chain: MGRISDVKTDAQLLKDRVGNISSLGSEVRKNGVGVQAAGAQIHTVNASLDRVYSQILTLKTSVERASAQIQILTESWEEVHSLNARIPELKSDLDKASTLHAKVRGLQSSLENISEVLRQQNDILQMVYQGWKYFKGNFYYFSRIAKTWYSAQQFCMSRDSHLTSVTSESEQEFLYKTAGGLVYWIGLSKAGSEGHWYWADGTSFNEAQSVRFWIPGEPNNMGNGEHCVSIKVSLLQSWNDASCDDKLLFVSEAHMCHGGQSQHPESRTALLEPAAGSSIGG

[2] = molecular target: mouse Langerin ectodomain (recombinant) (Mus musculus, UniProt Q8VBX4)
[3] = molecular target: human Langerin ectodomain (recombinant) (Homo sapiens, UniProt Q9UJ71)
Chain of human Langerin ectodomain (recombinant) (Q9UJ71 65-328): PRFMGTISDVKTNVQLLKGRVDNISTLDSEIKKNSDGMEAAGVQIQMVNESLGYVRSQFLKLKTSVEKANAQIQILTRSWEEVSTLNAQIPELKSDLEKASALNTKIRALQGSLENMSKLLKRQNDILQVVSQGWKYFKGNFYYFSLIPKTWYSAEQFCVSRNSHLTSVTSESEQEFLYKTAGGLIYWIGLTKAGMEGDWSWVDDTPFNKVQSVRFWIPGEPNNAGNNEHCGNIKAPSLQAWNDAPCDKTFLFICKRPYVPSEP

Chain of mouse Langerin ectodomain (recombinant) (Q8VBX4 63-331): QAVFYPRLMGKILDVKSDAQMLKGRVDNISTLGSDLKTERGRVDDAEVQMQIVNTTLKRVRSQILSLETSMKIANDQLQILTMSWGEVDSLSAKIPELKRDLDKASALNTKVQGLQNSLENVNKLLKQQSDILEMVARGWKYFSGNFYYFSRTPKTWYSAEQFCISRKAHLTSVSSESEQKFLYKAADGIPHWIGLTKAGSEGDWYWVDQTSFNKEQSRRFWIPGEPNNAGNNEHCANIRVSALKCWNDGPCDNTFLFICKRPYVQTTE

B1: LC^3.Env^3 (fibritin-stabilised HIV-1 Env gp140z trimer fused to three scFv of the anti-Langerin 4C7 mAb) (scFv, V domains shown)
VH: QVQLQQSGAELVRPGASVTLSCKASGYTFIDHDMHWVQQTPVYGLEWIGAIDPETGDTGYNQKFKGKAILTADKSSRTAYMELRSLTSEDSAVYYCTIPFYYSNYSPFAYWGQGTLVTVSA
VL: QIVLSQSPAILSASPGEKVTMTCRASSSVSYMHWYQRKPGSSPKPWIYATSNLASGVPARFSGSGSGTSYSLTISRVEAEDAATYYCQQWSSNPLTFGAGTKLELK
Work on B1 yielded a Kd [1] of ~3.5 nM, a Kd [2] of ~3.5 nM and a Kd [3] of ~3.5 nM.

B2: LC.Env (anti-Langerin 4C7 mAb fused to HIV-1 envelope gp140z from clade C 96ZM651) (antibody, V domains shown)
VH: B1 VH
VL: B1 VL
B2 was tested, and the Kd [1] was ~0.7 nM, the Kd [2] was ~0.7 nM and the Kd [3] was ~0.7 nM.
